Reference: US20250326828A1 (STAIDSON BEIJING BIOPHARMACEUTICALS, published 2025)
Residue numbers refer to the chain shown, from its start. Like-named read-outs stand apart in the source and are kept apart here. Blank lines part the entries; values can stand above or below the binder they belong to.

What was measured:
[1] = target: T1, human GDF15-hFc (human); assay: competition ELISA; GFRAL-his coated, antibody titrated against human GDF15-hFc, anti-human IgG-HRP detection
T1 construct: Recombinant hFc-tagged fusion protein expressed in 293F cells
T1 chain: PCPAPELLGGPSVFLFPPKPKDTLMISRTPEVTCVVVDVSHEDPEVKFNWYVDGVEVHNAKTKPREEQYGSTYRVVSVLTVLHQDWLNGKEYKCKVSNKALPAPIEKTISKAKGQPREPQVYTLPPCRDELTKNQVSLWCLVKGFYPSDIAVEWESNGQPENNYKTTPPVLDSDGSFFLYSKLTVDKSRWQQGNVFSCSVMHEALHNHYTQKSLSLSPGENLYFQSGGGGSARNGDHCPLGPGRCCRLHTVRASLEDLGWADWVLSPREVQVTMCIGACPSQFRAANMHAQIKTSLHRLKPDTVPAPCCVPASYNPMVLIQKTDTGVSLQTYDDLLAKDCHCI
Procedure: (§1) The ELISA assay was performed to measure the inhibitory activity of anti-GDF15 antibodies in concentration gradients to block GDF15 binding to GFRAL receptor. IC₅₀ values were used as a measure for neutralizing activity of candidate molecules. Briefly, 96-well plates were coated with 100 ng/well of GFRAL-his protein (SEQ ID NO: 74), and incubated for 1 h at 37° C. The plates were washed with PBST and then blocked for 1 hour at 37° C. with 1% BSA. Gradient-diluted antibodies (dose range 0˜10 μg/ml) was added into each well, immediately followed by equal volume of human GDF15-hFc protein ([…]). After incubation and washing, 100 μl of anti-human IgG secondary antibody (goat anti-human IgG-HRP, Sigma, A8667) was added to each well. Finally, TMB solution (100 μl/well) was added. 2M H₂SO₄ was used to stop the reaction. The OD450 was measured and the binding curve was generated by PRISM to calculate the IC₅₀ value.

[2] = target: T2, human GDF15-his (human); assay: cell-based or functional assay
T2 chain: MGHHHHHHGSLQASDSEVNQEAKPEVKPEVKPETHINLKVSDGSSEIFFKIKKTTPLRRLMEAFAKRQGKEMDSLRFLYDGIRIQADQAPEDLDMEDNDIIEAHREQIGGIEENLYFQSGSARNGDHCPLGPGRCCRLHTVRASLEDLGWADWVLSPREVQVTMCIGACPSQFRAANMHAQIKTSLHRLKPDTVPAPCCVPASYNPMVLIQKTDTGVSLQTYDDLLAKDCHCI

[3] = target: T2, human GDF15-his; assay: ELISA; antibody coated, human GDF15-his titrated, anti-his-HRP detection
Procedure: (§2) ELISA binding assay: The purified monoclonal antibody was subjected to a binding assay with human GDF15-his protein. The binding assay was designed to characterize the binding activity of the anti-GDF15 antibody. Briefly, a 96-well plate was coated with anti-GDF15 antibody (200 ng/well) and incubated for 1 hour at 37° C. The plates were washed with PBST and then blocked for 1 hour at room temperature using 1% BSA. Then 100 µl/well of gradient-diluted human GDF15-his solution (dose range 0-50 μg/ml) was added into plates. After incubation, 100 μl of anti-his tag secondary antibody (anti-his-HRP (1:2000), Bersee, cat #BHR790) was added to each well. Finally, the TMB solution (100 μl/well) was added. 2M H₂SO₄ was used to stop the reaction. The OD450 was measured, and the binding curves were generated by PRISM software to analyze the affinity of candidate antibodies to human GDF15 antigen, and EC₅₀ value were calculated.

[4] = target: T1, human GDF15-hFc; assay: competition ELISA as in Example 2; GFRAL-his coated, antibody titrated against human GDF15-hFc
Procedure: as §1

[5] = target: T2, human GDF15-his; assay: cell-based or functional assay
[6] = target: T2, human GDF15-his; assay: ELISA as in Example 2: plate coated with the antibody, graded human GDF15-his, anti-his-HRP, OD450; the sheet's x axis reads 'Log GDF15 Antibody (nM)'
Procedure: as §2

[7] = target: T3, rhesus monkey GDF15-hFc (rhesus monkey); assay: SPR, Biacore 8K; antibody on CM5 chip
T3 chain: T1 chain with H237R, R252H, A285E, T294M, S295N, I343V
Procedure: (§3) The binding affinity of anti-GDF15 antibodies for human GDF15, rhesus monkey GDF15, mouse GDF15 were characterized using Biacore 8K (GE). The anti-GDF15 antibodies were stabilized on sensor chip CM5. The binding affinity of antibody for GDF15 proteins from different species at various concentrations was measured. Using the SPR technology, the association and dissociation rates were measured, and binding affinity was determined.

[8] = target: T4, mouse GDF15-hFc (mouse); assay: SPR, Biacore 8K; antibody on CM5 chip
T4 chain: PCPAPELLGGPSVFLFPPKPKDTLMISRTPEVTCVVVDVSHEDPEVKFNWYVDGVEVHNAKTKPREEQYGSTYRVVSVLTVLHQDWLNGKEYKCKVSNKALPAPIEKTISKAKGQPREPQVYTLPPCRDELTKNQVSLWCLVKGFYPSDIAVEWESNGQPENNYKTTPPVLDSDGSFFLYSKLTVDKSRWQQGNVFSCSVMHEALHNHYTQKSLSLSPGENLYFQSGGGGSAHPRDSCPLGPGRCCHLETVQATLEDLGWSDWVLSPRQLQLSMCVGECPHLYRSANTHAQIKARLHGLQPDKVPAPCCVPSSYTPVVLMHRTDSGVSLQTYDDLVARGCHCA
Procedure: as §3

[9] = target: T1, human GDF15-hFc; assay: SPR, Biacore 8K; antibody on CM5 chip
Procedure: as §3

[10] = target: T2, human GDF15-his; assay: cell-based or functional assay
[11] = target: T2, human GDF15-his; assay: ELISA as in Example 2: plate coated with the antibody, graded human GDF15-his, anti-his-HRP, OD450; the sheet's x axis reads 'Log GDF15 antibody (nM)'
Procedure: as §2

- IC50 [4]: 2.06 nM
- IC50 (read off the curve), SRE-luciferase signal in 293T-GFRAL/RET-Luc cells with human GDF15-his [10]: ~0.1 nM
- EC50 (read off the curve) [11]: ~200 nM
B5: hum_R37-13 (antibody, V domains shown)
VH: EVQLVESGGGLVKPGGSLRLSCAASGFSLSNYYMSWVRQAPGKGLEWIGMISFSGTTYATWAKGRFTISKDSSKNTVYLQINSLKTEDTAVYFCARVVYAGWTYPLGIWGQGTLVTVSS
VL: DIQMTQSPSSLSASVGDRVTITCQASQSISSVLSWYQQKPGKPPKLLIYEASILASGVPSRFSGSGSGTDFTLTISSLQPEDFATYYCQANYDVYNYGNPFGGGTKVEIK
notes: Tested in human IgG1 format

- IC50 [4]: 1.9 nM
- IC50 (read off the curve), SRE-luciferase signal in 293T-GFRAL/RET-Luc cells with human GDF15-his [10]: ~0.1 nM
- EC50 (read off the curve) [6]: ~80 nM
B6: hum_R37-11 (antibody, V domains shown)
VH: B5 VH with I48V, K70R, S72D
VL: B5 VL with L46A
notes: Tested in human IgG1 format

- IC50 [4]: 1.51 nM
- IC50 (read off the curve), SRE-luciferase signal in 293T-GFRAL/RET-Luc cells with human GDF15-his [10]: ~0.2 nM
- EC50 (read off the curve) [11]: ~200 nM
B7: hum_R37-14 (antibody, V domains shown)
VH: EVQLVESGGGLVKPGGSLRLSCAASGFSLSNYYMSWVRQAPGKGLEWIGMISFSGTTYATWAKGRFTISKDSSTVYLQINSLKTEDTAVYFCARVVYAGWTYPLGIWGQGTLVTVSS
VL: B5 VL
notes: Tested in human IgG1 format

- IC50 [4]: 1.59 nM
- IC50 (read off the curve), SRE-luciferase signal in 293T-GFRAL/RET-Luc cells with human GDF15-his [10]: ~0.2 nM
- EC50 (read off the curve) [11]: ~200 nM
B8: hum_R37-15 (antibody, V domains shown)
VH: B5 VH with S72D
VL: B5 VL
notes: Tested in human IgG1 format

- IC50 [4]: 1.82 nM
- IC50 (read off the curve), SRE-luciferase signal in 293T-GFRAL/RET-Luc cells with human GDF15-his [10]: ~0.2 nM
- EC50 (read off the curve) [6]: ~80 nM
B9: hum_R37-9 (antibody, V domains shown)
VH: B5 VH with S72D
VL: B5 VL with L46A
notes: Tested in human IgG1 format

- IC50 [1]: 1.56 nM
- IC50, 293T-GFRAL/RET-Luc SRE luciferase reporter cells stimulated with human GDF15-his (15 ng/ml) [2]: 0.18 nM
- EC50 [3]: 68.9 nM
B12: GDF-R45-rabIg1 (antibody, V domains shown)
VH: QSVKESGGRLVTPGTPLTLTCTASGFSLSDYYMTWVRQAPGEGLEWIGMISFSGTTYATWAKGRFTISKASTTVDLKITSPTTEDTATYFCARVVYAGWTYPLGIWGPGTLVTVSS
VL: YVMMTQTPPSVSEPVGGTVTIKCQASQSISSVLSWYQQKPGQPPKVLIYEASTLASGVPSRFKGSGSGTDFTLTISDLECADAATYYCQANYDVYNYGNPFGGGTEVVVK
notes: Full-length rabbit antibody: rabbit IgG1 heavy constant and rabbit light constant; also called GDF15-R45-rabIg1

The remaining lines, values behind:

B1: GDF-R44-rabIg1 (antibody, V domains shown)
VH: QSVKESGGRLVTPGTPLTLTCKASGFSLSTYWMSWVRQAPGKGLEWIGTIYAGSGGTWYASWVKGRFTISKTSTTVDLKMTSLTTEDTATYFCVRGPNYSDAIWGPGTLVTVSS
VL: DIVLTQTAASVSEPVGGTVTIKCQASEYIYSSLAWYQQKPGQPPKLLIYDASDLASGVPSRFKGSGYGTEFTLTISGVQCGDAATYYCQCTDLSSSAGNTFGGGTEVVVK
notes: Full-length rabbit antibody: rabbit IgG1 heavy constant and rabbit light constant; also called GDF15-R44-rabIg1
- IC50 [1]: 1.98 nM
- IC50, 293T-GFRAL/RET-Luc SRE luciferase reporter cells stimulated with human GDF15-his (15 ng/ml) [2]: 0.27 nM
- EC50 [3]: 54.8 nM

B2: GDF-R31-rabIg1 (antibody, V domains shown)
VH: QQLKESGGRLVTPGTPLTLTCTVSGFSLSDYYMSWVRQAPGKGLEWIGDIYGGSGTTDYASWVKGRFTISKTSTTVDLRIASPTTEDTATYFCGRGITADIWGPGTLVTVSL
VL: DIVLTQTPASVEAAVGGTVTIKCQASQSISSYLAWYQQKPGQPPKLLIYKASTLASGVPSRFKGSGSGTEFTLTISDLECADAATYYCRCIYGDSYGAAFGGGTEVVVQ
notes: Full-length rabbit antibody: rabbit IgG1 heavy constant (pTTa1-rab Ig1-H) and rabbit light constant (pTTa1-rab-CLB4); also called GDF15-R31-rabIg1
- IC50 [1]: 2.28 nM
- EC50 [3]: 66.5 nM

B3: hum_R37-7 (antibody, V domains shown)
VH: B5 VH
VL: B5 VL with L46A
notes: Tested in human IgG1 format
- IC50 [4]: 2.31 nM
- IC50 (read off the curve), SRE-luciferase signal in 293T-GFRAL/RET-Luc cells with human GDF15-his [5]: ~0.1 nM
- EC50 (read off the curve) [6]: ~80 nM

B4: hum_R37-8 (antibody, V domains shown)
VH: B7 VH
VL: B5 VL with L46A
notes: Tested in human IgG1 format
- IC50 [4]: 1.59 nM
- Kd [7]: 1.09 nM
- koff [7]: 0.002 s⁻¹
- kon [7]: 1.84e+06 M⁻¹ s⁻¹
- Kd [8]: 101 nM
- koff [8]: 0.0017 s⁻¹
- kon [8]: 16800 M⁻¹ s⁻¹
- Kd [9]: 0.607 nM
- koff [9]: 8.46e-05 s⁻¹
- kon [9]: 139000 M⁻¹ s⁻¹
- IC50 (read off the curve), SRE-luciferase signal in 293T-GFRAL/RET-Luc cells with human GDF15-his [5]: ~0.1 nM
- EC50 (read off the curve) [6]: ~80 nM

B10: hum_R37-18 (antibody, V domains shown)
VH: B5 VH with I48V, K70R, S72D, V77L, I81M
VL: B5 VL
notes: Tested in human IgG1 format
- IC50 [4]: 0.88 nM
- IC50 (read off the curve), SRE-luciferase signal in 293T-GFRAL/RET-Luc cells with human GDF15-his [10]: ~0.2 nM
- EC50 (read off the curve) [11]: ~200 nM

B11: GDF-R36-rabIg1 (antibody, V domains shown)
VH: B12 VH with V3L, K4E, D30N, T34S, A70T
VL: B12 VL with Y1D, V2P, M3V, M4L, P9A
notes: Full-length rabbit antibody: rabbit IgG1 heavy constant and rabbit light constant; also called GDF15-R36-rabIg1
- IC50 [1]: 1.44 nM
- IC50, 293T-GFRAL/RET-Luc SRE luciferase reporter cells stimulated with human GDF15-his (15 ng/ml) [2]: 0.17 nM
- EC50 [3]: 44.4 nM

B13: GDF-R35-rabIg1 (antibody, V domains shown)
VH: B12 VH with V3L, K4E, D30N, T34S, A70T
VL: B12 VL with Y1A, V2I, M3N, P9A, L54Q
notes: Full-length rabbit antibody: rabbit IgG1 heavy constant and rabbit light constant; also called GDF15-R35-rabIg1
- IC50 [1]: 1.32 nM
- IC50, 293T-GFRAL/RET-Luc SRE luciferase reporter cells stimulated with human GDF15-his (15 ng/ml) [2]: 0.21 nM
- EC50 [3]: 31.3 nM
